5 molecules from article PMC12775136, “Mechanistic insights into recruitment and regulation of the RNA helicase UPF1 in replication-dependent histone mRNA decay” can be followed below.

Data set [1] concerns the target T1, UPF1-Hel;SLBP-N (human;human, UniProt Q92900-2;Q14493 295-914;1-198, |). Kind of data set: analytical SEC; stable UPF1-SLBP complex only with SL26; Fluorescence anisotropy: 20 mM HEPES pH 7.5, 100 mM NaCl, 0.5 mM EDTA, 100 ug/ml BSA; 30 min at room temperature, read at 25 C; one-site fit with Hill slope, n=3. Particulars: protein: recombinant;recombinant; tags: 6xHis;6xHis-TEV; copies: 1;1; hairpin, 6 bp stem, 4 nt loop. (Polarisation of emitted light reports the rotation of a fluorescent probe.)

For the next data set, the target named is SLBPfl (human, UniProt Q14493 1-270). As to the kind of experiment: fluorescence anisotropy; 0.5 mM EDTA; Fluorescence anisotropy: 20 mM HEPES pH 7.5, 100 mM NaCl, 0.5 mM EDTA, 100 ug/ml BSA; 30 min at room temperature, read at 25 C; one-site fit with Hill slope, n=3. To be noted: protein: recombinant, tags: 6xHis-TEV (N-terminal), label: 5' 6-FAM.
The target of data set [2] is T2, 3'hExofl (ERI1) (human, UniProt Q8IV48 1-349).
T2 sequence: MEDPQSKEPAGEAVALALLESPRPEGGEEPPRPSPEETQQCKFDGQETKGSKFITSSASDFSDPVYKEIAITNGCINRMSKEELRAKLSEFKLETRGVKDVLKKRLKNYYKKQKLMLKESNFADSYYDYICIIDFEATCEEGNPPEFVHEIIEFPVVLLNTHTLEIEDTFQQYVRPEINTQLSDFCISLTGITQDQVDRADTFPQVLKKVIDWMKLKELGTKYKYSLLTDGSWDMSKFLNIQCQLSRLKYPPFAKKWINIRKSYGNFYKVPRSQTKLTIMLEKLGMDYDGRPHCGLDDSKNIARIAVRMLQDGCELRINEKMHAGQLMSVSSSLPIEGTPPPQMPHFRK
As to the kind of experiment: fluorescence anisotropy; 0.5 mM EDTA, no Mg2+; affinity comparable to SL26 and SL24; Kd shown only in figure; Fluorescence anisotropy: 20 mM HEPES pH 7.5, 100 mM NaCl, 0.5 mM EDTA, 100 ug/ml BSA; 30 min at room temperature, read at 25 C; one-site fit with Hill slope, n=3. Particulars: protein: recombinant; tags: 6xHis, HRV-3C site (N-terminal); label: 5' 6-FAM; partial hairpin; 3' arm lacks last 2 stem nt.

The target of data set [3] is T2, 3'hExofl (ERI1). Kind of data set: fluorescence anisotropy; 0.5 mM EDTA, no Mg2+; Kd shown only in figure; Fluorescence anisotropy: 20 mM HEPES pH 7.5, 100 mM NaCl, 0.5 mM EDTA, 100 ug/ml BSA; 30 min at room temperature, read at 25 C; one-site fit with Hill slope, n=3. To be noted: protein: recombinant, tags: 6xHis, HRV-3C site (N-terminal), label: 5' 6-FAM, hairpin.

For another data set, the target named is T3, UPF1-CHh (human, UniProt Q92900-2 115-914).
T3 sequence: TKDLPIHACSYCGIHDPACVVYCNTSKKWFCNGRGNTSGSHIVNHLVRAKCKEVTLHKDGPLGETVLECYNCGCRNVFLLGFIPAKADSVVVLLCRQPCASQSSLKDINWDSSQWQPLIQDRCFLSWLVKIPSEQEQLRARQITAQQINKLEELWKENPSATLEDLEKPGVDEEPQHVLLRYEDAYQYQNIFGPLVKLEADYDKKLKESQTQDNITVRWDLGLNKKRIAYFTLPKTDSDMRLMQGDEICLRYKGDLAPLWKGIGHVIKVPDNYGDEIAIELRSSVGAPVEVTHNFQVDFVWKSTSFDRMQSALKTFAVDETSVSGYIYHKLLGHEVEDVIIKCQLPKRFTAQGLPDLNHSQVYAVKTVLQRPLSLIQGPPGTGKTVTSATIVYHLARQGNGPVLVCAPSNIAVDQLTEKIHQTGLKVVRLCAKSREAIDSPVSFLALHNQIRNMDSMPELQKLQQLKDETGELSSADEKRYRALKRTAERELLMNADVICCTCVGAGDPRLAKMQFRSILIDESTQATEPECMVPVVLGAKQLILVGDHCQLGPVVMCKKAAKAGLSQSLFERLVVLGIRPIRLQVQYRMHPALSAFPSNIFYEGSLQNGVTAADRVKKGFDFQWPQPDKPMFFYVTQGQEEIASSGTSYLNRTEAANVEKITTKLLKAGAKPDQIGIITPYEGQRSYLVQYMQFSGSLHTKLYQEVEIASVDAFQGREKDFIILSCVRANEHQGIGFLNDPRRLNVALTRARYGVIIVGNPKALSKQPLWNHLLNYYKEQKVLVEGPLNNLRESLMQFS
As to the kind of experiment: cryoEM structure (3.6 A); no ATP; Zn2+; Fluorescence anisotropy: 20 mM HEPES pH 7.5, 100 mM NaCl, 0.5 mM EDTA, 100 ug/ml BSA; 30 min at room temperature, read at 25 C; one-site fit with Hill slope, n=3. Particulars: protein: recombinant; tags: 6xHis; hairpin with 5' single-stranded U12 extension.

Data set [4] has as its target T1, UPF1-Hel;SLBP-N. Kind of data set: preparative SEC; ternary complex reconstituted for crosslinking MS; Fluorescence anisotropy: 20 mM HEPES pH 7.5, 100 mM NaCl, 0.5 mM EDTA, 100 ug/ml BSA; 30 min at room temperature, read at 25 C; one-site fit with Hill slope, n=3. Particulars: protein: recombinant;recombinant; tags: 6xHis;6xHis-TEV; copies: 1;1; hairpin with 5' single-stranded U12 extension.

Regarding CCAAAGGCUCUUUUCAGAGCCACCCA (structured_RNA) [SL26 RNA (SEC)], the binding result in the data set with UPF1-Hel;SLBP-N [1] was “binds”. One may read the Kd as the concentration at which binding is half-saturated. CCAAAGGCUCUUUUCAGAG (structured_RNA) [6-FAM-SL19]: in the data set with SLBPfl (partial hairpin, 3' arm lacks last 2 stem nt), the Kd is roughly 500 nM. The binding result with 3'hExofl (ERI1) [2] is recorded as “binds”. For the molecule CCAAAGGCUCUUUUCAGAGCCACU (structured_RNA) [6-FAM-SL24], the Kd with SLBPfl (hairpin, intact 6 bp stem) was roughly 7 nM. Moreover, in the data set with 3'hExofl (ERI1) [3] (intact 6 bp stem), the binding result was “binds”.

Take CCAAAGGCUCUUUUCAGAGCCACCCA (structured_RNA) [6-FAM-SL26]: the Kd with SLBPfl (hairpin, 6 bp stem, 4 nt loop) is roughly 6 nM. Also, in the data set with 3'hExofl (ERI1) [3] (6 bp stem, 4 nt loop), the binding result was “binds”.

Consider UUUUUUUUUUUUCCAAAGGCUCUUUUCAGAGCCACCCA (structured_RNA) [U-SL (12U-26SL)], for which the binding result in the data set with UPF1-CHh and with UPF1-Hel;SLBP-N [4] was “binds” each time.
